The record followed here is patent US20120301476A1 (TORAY INDUSTRIES, published 2012).

The target of experiment [1] is T1, human CAPRIN-1 protein on the cell surfaces of human cancer cell lines and in human cancer tissues (human, UniProt Q14444 2-709).
T1 construct: whole, on cells; Endogenous protein of human cancer cell lines (flow cytometry, ADCC, CDC) and of human cancer tissue sections (immunohistochemistry); also called CAPRIN-1 protein expressed on the cell membrane surfaces
T1 sequence (looked up): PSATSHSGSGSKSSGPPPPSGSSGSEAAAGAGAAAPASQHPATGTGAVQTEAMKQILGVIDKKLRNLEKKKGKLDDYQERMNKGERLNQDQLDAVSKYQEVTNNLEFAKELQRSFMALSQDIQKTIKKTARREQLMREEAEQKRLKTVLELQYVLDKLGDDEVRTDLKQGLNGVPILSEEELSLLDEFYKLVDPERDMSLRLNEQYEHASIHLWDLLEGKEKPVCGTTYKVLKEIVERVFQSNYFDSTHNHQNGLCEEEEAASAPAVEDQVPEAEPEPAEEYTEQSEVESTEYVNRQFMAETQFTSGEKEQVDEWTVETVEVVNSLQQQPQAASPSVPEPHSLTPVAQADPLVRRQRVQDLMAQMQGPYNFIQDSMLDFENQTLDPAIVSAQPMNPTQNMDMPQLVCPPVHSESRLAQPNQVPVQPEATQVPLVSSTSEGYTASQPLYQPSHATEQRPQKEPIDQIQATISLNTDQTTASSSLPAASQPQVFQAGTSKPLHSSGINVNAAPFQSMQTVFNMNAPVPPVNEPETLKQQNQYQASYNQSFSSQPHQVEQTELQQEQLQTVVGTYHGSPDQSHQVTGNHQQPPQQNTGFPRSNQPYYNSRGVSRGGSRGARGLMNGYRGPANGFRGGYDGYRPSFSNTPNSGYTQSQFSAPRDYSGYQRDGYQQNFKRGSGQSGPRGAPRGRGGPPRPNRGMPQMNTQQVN
Briefly: flow cytometry on the listed human cancer cell lines, culture supernatant, against negative control. The procedure: 10⁶ cells of each cell line were centrifuged in a 1.5 ml microcentrifuge tube. Each cell culture supernatant (100 μl) of CHO-K1 cells containing #1 obtained in (2) above and hybridomas producing #2, #3, #4, #5, and #6 obtained in Example 3 was added and then left to stand on ice for 1 hour. After washing with PBS, a FITC-labeled goat anti-human IgG (H+L) antibody (SouthernBiotech) and a FITC-labeled anti-mouse IgG (H+L) antibody (Invitrogen) diluted 500-fold with PBS containing 0.1% FBS were added and then left to stand on ice for 1 hour. After washing with PBS, fluorescence intensity was measured using a FACS Calibur (Becton, Dickinson). Meanwhile, procedures similar to the above were performed using a culture supernatant of CHO-K1 cells into which no antibody gene had been introduced and medium for culturing hybridomas, so that a negative control sample was prepared. […] Specifically, when the antibody #1 was used, fluorescence intensity was enhanced to 4700% in the case of SK-BR-3 and 5500% in the case of MDA-MB-231V. Also, when the antibodies #2, #3, #4, #5, and #6 were used, fluorescence intensity was enhanced. […] The percentage of enhancement in the above fluorescence intensity was expressed as percentage of increase in mean fluorescence intensity (MFI level) in each type of cell and calculated by the following formula.

Experiment [2] deals with T2, recombinant human CAPRIN-1 protein having the amino acid sequence represented by SEQ ID NO: 2 (prepared in … (human, UniProt Q14444 1-709, limits assumed)).
T2 construct: Expressed in E. coli from pET30a; the His-tag was cleaved off with enterokinase; also called CAPRIN-1 recombinant protein; CAPRIN-1 molecule
T2 sequence: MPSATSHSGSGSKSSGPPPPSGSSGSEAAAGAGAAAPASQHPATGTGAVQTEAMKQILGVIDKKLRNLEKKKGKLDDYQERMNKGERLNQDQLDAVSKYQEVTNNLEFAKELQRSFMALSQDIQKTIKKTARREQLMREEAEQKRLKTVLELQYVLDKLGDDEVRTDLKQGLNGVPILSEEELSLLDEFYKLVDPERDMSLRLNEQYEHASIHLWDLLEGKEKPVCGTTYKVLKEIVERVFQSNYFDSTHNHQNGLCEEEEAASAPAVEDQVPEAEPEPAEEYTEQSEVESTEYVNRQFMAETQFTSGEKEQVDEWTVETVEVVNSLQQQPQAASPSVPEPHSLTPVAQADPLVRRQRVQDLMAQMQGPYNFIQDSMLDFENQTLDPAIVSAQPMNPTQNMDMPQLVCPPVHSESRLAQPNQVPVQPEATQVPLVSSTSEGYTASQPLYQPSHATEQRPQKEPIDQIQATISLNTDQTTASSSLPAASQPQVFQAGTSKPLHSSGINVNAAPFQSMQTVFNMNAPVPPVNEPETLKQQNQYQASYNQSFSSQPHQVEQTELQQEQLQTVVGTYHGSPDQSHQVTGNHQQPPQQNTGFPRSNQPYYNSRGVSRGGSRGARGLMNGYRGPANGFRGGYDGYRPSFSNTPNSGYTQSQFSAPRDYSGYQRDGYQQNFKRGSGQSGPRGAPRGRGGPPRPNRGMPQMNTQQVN
The experiment in a line: SPR (BIACORE2000), CAPRIN-1 recombinant protein amine-coupled to CM5 chip, antibody as analyte. As to the method: As a reference control (reference cell), a sensor chip with 20 μg/ml bovine serum-derived albumin immobilized thereto by the same method was used. A sensor chip to which the CAPRIN-1 molecule had been immobilized was set in BIACORE2000, 40 μL, each of the antibody solution (analyte) prepared to have a concentration (100, 80, 40, 20, 10, 5, or 2.5 μg/mL) was applied at a flow rate of 20 μL/minute, the surface plasmon resonance angle at the time of binding of an antibody to the CAPRIN-1 molecule immobilized on the sensor chip was measured, so that each RU value (Resonance Unit) was obtained. Next, a running buffer HBS-EP solution (GE) was applied and then the resonance angle upon dissociation of the antibody from the CAPRIN-1 molecule was measured, and then the RU value at this time was obtained. An antibody solution was similarly applied to a reference control (reference cell) sensor chip, the resonance angle at the time of immobilization reaction and the resonance angle at the time of dissociation reaction were measured, and thus the background RU values were obtained. […] Association rate constant (kₒₙ) and dissociation rate constant (koff) were found from the thus obtained RU value at each antibody concentration using affinity analysis software BIA evaluation, so that affinity constant Ka(=kₒₙ/koff) was calculated.

B1: human-chicken chimeric antibody #1 having the chicken monoclonal antibody #1 variable region (antibody, V domains shown)
VH: AVTLDESGGGLQMSRGGLSLVCKASGFDFSSYQMNWIRQAPGKGLEFVAAINKFGNSTGHGAAVKGRVTISRDNGQSTVRLQLNNLRAEDTAIYFCTKHAYGYCGSGTWCAAGEIDAWGHGTEVIVSS
VL: QAASTQPSSVSANPGETVEITCSGGGSYSYGWFQQKSPGSAPVTVIYYNNKRPSDIPSRFSGSKSGSTGTLTITGVQADDEAVYYCGSGDSTDTAVFGAGTTLTVLG
notes: also called anti-CAPRIN-1 antibody #1; human-chicken chimeric monoclonal antibody (#1); not shown: human IgG1 H-chain constant region; human IgG1 L-chain constant region
For B1, the “percentage of increase in mean fluorescence intensity” value in experiment [1] was not below 20%. Also, the Ka in experiment [2] was 4.6e+07 M⁻¹.
